Test results as given in patent US20230151082A1.

Legend:
[1] = target: mesothelin present on the cell membrane of mesothelin-expressing cancer cell lines (AsPC-1; OVCAR-3; NCI-H2052) (human) (UniProt Q13421); assay: flow cytometry, phage clone on AsPC-1 cells, anti-M13-FITC
[2] = target: mesothelin present on the cell membrane of mesothelin-expressing cancer cell lines (AsPC-1; OVCAR-3; NCI-H2052) (human) (UniProt Q13421); assay: flow cytometry, phage clone on AsPC-1 cells against control K562 cells
[3] = target: human mesothelin protein (MSLN, Acro Biosystems), conjugated to a histidine tag (human) (UniProt Q13421); assay: ELISA, purified scFv on coated human mesothelin protein (1 ug/mL), anti-StrepMAB HRP

Row | Binder | relative peak shift value [1] | relative peak shift value [2] | EC50 [3]
1 | MSLN34 phage clone (scFv displayed on phage, KBIO human synthetic scFv phage display library KscFv-I) (scFv, not shown: large carriers; small tags and cut ends, displayed on M13 phage) scFv: EVQLVESGGGLVQPGGSLRLSCAASGFTFSDYGMHWVRQAPGKGLEWVSSIYGSGGHTGYADSVKGRFTISRDNSKNTLYLQMNSLRAEDTAVYYCAKQHAYRYSYAFDVWGQGTLVTVSSGGGGSGGGGSGGGGSDIQMTQSPSSLSASVGDRVTITCRASQSISNWLNWYQQKPGKAPKLLIYATSSLQSGVPSRFSGSGSGTDFTLTISSLQPEDFATYYCQQSYSFPFTFGQGTKVEIK | > 5% | 16.2% | 
2 | anti-MSLN-scFv antibody MSLN34 (purified scFv from E. coli periplasm) (scFv, not shown: small tags and cut ends) scFv: EVQLVESGGGLVQPGGSLRLSCAASGFTFSDYGMHWVRQAPGKGLEWVSSIYGSGGHTGYADSVKGRFTISRDNSKNTLYLQMNSLRAEDTAVYYCAKQHAYRYSYAFDVWGQGTLVTVSSGGGGSGGGGSGGGGSDIQMTQSPSSLSASVGDRVTITCRASQSISNWLNWYQQKPGKAPKLLIYATSSLQSGVPSRFSGSGSGTDFTLTISSLQPEDFATYYCQQSYSFPFTFGQGTKVEIK |  |  | 83 nM
3 | MSLN37 phage clone (scFv displayed on phage, KBIO human synthetic scFv phage display library KscFv-I) (scFv, V domains shown) VH: EVQLVESGGGLVQPGGSLRLSCAASGFTFSSYAMHWVRQAPGKGLEWVSGISGSGGTTYYADSVKGRFTISRDNSKNTLYLQMNSLRAEDTAVYYCAKEVEGQSQEYFDIWGQGTLVTVSS VL: DIQMTQSPSSLSASVGDRVTITCRASQSIANYLNWYQQKPGKAPKLLIYAASNLQSGVPSRFSGSGSGTDFTLTISSLQPEDFATYYCQQSYSFPYTFGQGTKVEIK | > 5% | 5.9% | 
